Source: patent US20250019435A1 (ALBERT EINSTEIN COLLEGE OF MEDICINE, published 2025)
One block for each binder: values may come before it.

B1: PVR-Ig fusion protein (Fc fusion, UniProt P15151 27-343, looked up)
chain: GDVVVQAPTQVPGFLGDSVTLPCYLQVPNMEVTHVSQLTWARHGESGSMAVFHQTQGPSYSESKRLEFVAARLGAELRNASLRMFGLRVEDEGNYTCLFVTFPQGSRSVDIWLRVLAKPQNTAEVQKVQLTGEPVPMARCVSTGGRPPAQITWHSDLGGMPNTSQVPGFLSGTVTVTSLWILVPSSQVDGKNVTCKVEHESFEKPQLLTVNLTVYYPPEVSISGYDNNWYLGQNEATLTCDARSNPEPTGYNWSTTMGPLPPFAVAQGAQLLIRPVDKPINTTLICNVTNALGARQAELTVQVKEGPPSEHSGISRN
notes: Bought (R&D Systems); also called PVR-Ig protein; not shown: Ig part, detected with anti-human IgG Fc

What was measured:
[1] = molecular target: T1, KIR2DL5A*005 allele expressed on 3T3 cells (human); assay: flow cytometry, PVR-Ig on 3T3 cells expressing KIR2DL5 alleles
T1 construct: also called 2D5A*005
Protocol: (§1) FIG. 10A-E: Allelic polymorphism affected PVR binding of KIR2DL5. (A) Flow cytometric analysis of PVR-Ig or CD112-Ig (open) or control hIg (shaded) binding to KIR2DL5/3T3. (B) Flow cytometric analysis of PVR-Ig binding to KIR2DL5/3T3 in the presence of increasing concentrations of F8B30. (C) KIR2DL5 bound to different sites of PVR from other receptors. PVR-Ig protein was preincubated with indicated His-tagged protein and then stained KIR2DL5/3T3 cells. […] (D) Flow cytometric analysis of PVR-Ig (open) or control hIg (shaded) binding on 3T3 cells expressing WT, DO-deleted, or D2-deleted KIR2DL5. Parental 3T3 cells were used as a negative control. (E) Flow cytometric analysis of PVR-Ig or control hIg (shaded) binding on 3T3 cells expressing different KIR2DL5 alleles. In A-E, data are representative of 2 independent experiments.
(§2) Fusion protein cell binding assays. PVR-Ig, CD112-Ig, or hIgG (R&D Systems) was incubated with corresponding 3T3 cells on ice for 45 minutes, followed by incubation with APC- or PE-conjugated anti-human IgG Fc antibody (1:100; clone HP6017, BioLegend) on ice for 30 minutes. Cells were then acquired on an LSR II flow cytometer (BD Biosciences). In the anti-KIR2DL5 mAb blocking assay, KIR2DL5/3T3 cells were preincubated with a serial concentration of anti-KIR2DL5 mAb F8B30 or mIgG1 on ice for 30 minutes. […]

[2] = molecular target: T2, KIR2DL4 expressed on 3T3 cells (human, UniProt Q99706 22-377); assay: flow cytometry, PVR-Ig titrated on KIR2DL4/3T3
T2 construct: whole, on cells; also called KIR2DL4/3T3
T2 sequence (Q99706 22-377): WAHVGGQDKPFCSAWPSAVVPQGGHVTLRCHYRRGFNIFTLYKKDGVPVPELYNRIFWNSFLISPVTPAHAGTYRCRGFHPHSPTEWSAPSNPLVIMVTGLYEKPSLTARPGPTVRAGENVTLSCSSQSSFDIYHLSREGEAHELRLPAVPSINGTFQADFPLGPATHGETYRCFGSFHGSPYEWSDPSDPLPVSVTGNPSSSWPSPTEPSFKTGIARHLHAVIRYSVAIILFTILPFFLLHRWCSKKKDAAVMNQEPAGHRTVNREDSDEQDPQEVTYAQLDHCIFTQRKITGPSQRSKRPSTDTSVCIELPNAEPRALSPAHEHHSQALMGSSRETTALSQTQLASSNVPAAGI
Protocol: Specifically, a cell-based binding assay was performed by incubating PVR-Ig fusion protein with KIR2DL5- or KIR2DL4-expressing 3T3 cells. Conversely, KIR2DL5 was selectively bound by PVR, but not by CD112 (also known as nectin-2), another ligand for TIGIT and DNAM-1 in the nectin/nectin-like family (FIG. 10A). Furthermore, anti-KIR2DL5 mAb F8B30 blocked KIR2DL5-PVR interaction (EC₅₀=0.095 μM) (FIG. 10B). The specificity of KIR2DL5 binding to PVR was also evidenced by an intercellular interaction assay, in which 3T3 cells expressing PVR interacted with 3T3 cells expressing KIR2DL5, but not with cells expressing KIR3DL3 (FIG. 18B), a newly identified inhibitory receptor of HHLA2 (Zang, 2022; Wei 2021; Bhatt 2021).
(§3) Fusion protein cell binding assays. PVR-Ig, CD112-Ig, or hIgG (R&D Systems) was incubated with corresponding 3T3 cells on ice for 45 minutes, followed by incubation with APC- or PE-conjugated anti-human IgG Fc antibody (1:100; clone HP6017, BioLegend) on ice for 30 minutes. Cells were then acquired on an LSR II flow cytometer (BD Biosciences). In the anti-KIR2DL5 mAb blocking assay, KIR2DL5/3T3 cells were preincubated with a serial concentration of anti-KIR2DL5 mAb F8B30 or mIgG1 on ice for 30 minutes. After washing, the cells were then incubated with 20 μg/mL PVR-Ig or hIgG on ice for 45 minutes, followed by incubation with APC anti-human IgG Fc antibody on ice for 30 minutes. […]

PVR-Ig fusion protein = molecular target: B1; assay: flow cytometry, PVR-Ig on 3T3 cells expressing KIR2DL5 alleles
Protocol: as §1, §2

[3] = molecular target: T3, KIR2DL5 wild type (KIR2DL5A*001) expressed on cells (human, UniProt Q8N109 22-375); assay: flow cytometry, fusion protein on KIR2DL5/3T3, anti-human IgG Fc detection
T3 construct: UniProtKB Q8N109 and NP_065396.1 are printed for this entry; In the SHP-1/SHP-2 co-immunoprecipitation the cells were treated with pervanadate and the receptor was tyrosine-phosphorylated; also called KIR2DL5/3T3; WT KIR2DL5
Protocol: PVR-Ig protein was preincubated with indicated His-tagged protein and then stained KIR2DL5/3T3 cells. […] (D) Flow cytometric analysis of PVR-Ig (open) or control hIg (shaded) binding on 3T3 cells expressing WT, DO-deleted, or D2-deleted KIR2DL5. Parental 3T3 cells were used as a negative control. (E) Flow cytometric analysis of PVR-Ig or control hIg (shaded) binding on 3T3 cells expressing different KIR2DL5 alleles. In A-E, data are representative of 2 independent experiments.
as §3

Binder: B1
binding result [1]: no binding
binding result [2]: no binding (tested: 1.28 µM)

binding result (PVR-Ig fusion protein): no binding
B2: KIR2DL5B*003 allele expressed on 3T3 cells (receptor)
chain: HEGGQDKPLLSAWPSAVVPRGGHVTLLCRSRLGFTIFSLYKEDGVPVPELYNKIFWKSILMGPVTPAHAGTYRCRGSHPRSPIEWSAPSNPLVIMVTGLFGKPSLSAQPGPTVRTGENVTLSCSSRSSFDMYHLSREGRAHEPRLPAVPSVNGTFQADFPLGPATHGGTYTCFGSLHDSPYEWSDPSDPLLVSVTGNSSSSSSSPTEPSSKTGIRRHLHILIGTSVAIILFIILFFFLLHCCCSNKKNAAVMDQEPAGDRTVNREDSDDQDPQEVTYAQLDHCVFTQTKITSPSQRPKTPPTDTTMYMELPNAKPRSLSPAHKHHSQALRGSSRETTALSQNRVASSHVPAAGI

binding result [3]: no binding
B3: CD112-Ig fusion protein (Fc fusion, UniProt Q92692 32-360, looked up)
chain: QDVRVQVLPEVRGQLGGTVELPCHLLPPVPGLYISLVTWQRPDAPANHQNVAAFHPKMGPSFPSPKPGSERLSFVSAKQSTGQDTEAELQDATLALHGLTVEDEGNYTCEFATFPKGSVRGMTWLRVIAKPKNQAEAQKVTFSQDPTTVALCISKEGRPPARISWLSSLDWEAKETQVSGTLAGTVTVTSRFTLVPSGRADGVTVTCKVEHESFEEPALIPVTLSVRYPPEVSISGYDDNWYLGRTDATLSCDVRSNPEPTGYDWSTTSGTFPTSAVAQGSQLVIHAVDSLFNTTFVCTVTNAVGMGRAEQVIFVRETPNTAGAGATGG
notes: Bought (R&D Systems); also called nectin-2; not shown: Ig part, detected with anti-human IgG Fc
